Publication PMC10514136, “Peptide-conjugated antimiRs improve myotonic dystrophy type 1 phenotypes by promoting endogenous MBNL1 expression” (Molecular Therapy. Nucleic Acids, 2023)
Read-outs that look alike come from different tables or passages of the source.

Columns and labels:
HSALR mice = assay: Serum biochemistry profile; format: in vivo, mouse
From the text: Mouse handling and experimental procedures followed the European law regarding laboratory animal care and experimentation (2003/65/C.E.) and were approved by Conselleria de Agricultura, […] (reference no. A1539961490857). We used homozygous transgenic HSA^LR (line 20 b) mice,[90] which were kindly provided by Dr Thornton (Rochester, NY) and were housed and bred in our animal facility. […] The mice were randomly allocated to the different treatments as follows: in each cage, each mouse was ear-marked as it was taken out, and each mouse was then assigned to a different treatment. Animals were injected biweekly intravenously with 150 μL of 1× PBS vehicle (controls; […] Mice were sacrificed 45 days after the first injection and the tissues of interest were frozen in liquid nitrogen for the molecular and histological assays. All the mice used in this study ranged from 5 to 5.5 months of age and all were males. At 45 days post treatment, animals were sacrificed, and blood was collected by cardiac puncture exsanguination with K3-EDTA (Sarstedt, Nümbrecht, Germany). The samples were analyzed by Laboratorios Montoro Botella (Valencia, Spain).

DM1 cells = assay: Cell proliferation assay (CellTiter 96 AQueous), cell growth inhibition after lipofection; format: cell-based, human
Experimental: Cells seeded at 10^5 cells/mL in 96-well plates were transfected 24 h later with antimiRs as described previously.[20] After 96 h, cell proliferation was measured using the CellTiter 96 AQueous Non-Radioactive Cell Proliferation Assay (Promega, Madison, WI). Absorbance levels were determined using an Infinite M200 PRO plate reader (Tecan, Männedorf, Switzerland) and the TC50 was calculated using non-linear least-squares regression.

Mbnl1 protein = assay: Western blot of Mbnl1 in mouse muscle; format: in vivo; set-up: scale not given here; details: HSALR mice, quadriceps, same value given for every mouse of a treatment group
Experimental: A 96-well plate QDB assay was used[87] to determine MBNL1 protein levels in all replicates and concentrations of each ON tested. This technique allows for high-throughput screening of low protein concentration samples over conventional western blot (WB) (Figure S9).[88] Cell samples (1 μg/well) and mice samples (2 μg/well) were prepared with 4× loading buffer, denatured (100°C for 5 min) and loaded in QDB plates (Quanticision Diagnostics, Research Triangle Park, NC). For the quantification of in vitro samples, the QDB was performed exactly as described in Moreno et al.[87] Each cell sample was loaded in quadruplicate in two different plates; one was used to detect MBNL1 (it was incubated overnight with primary mouse anti-MBNL1 [1:1,000, Abcam, ab77017]) and the other for GAPDH (it was incubated overnight with primary mouse anti-GAPDH [1:500, Santa Cruz, clone G-9]), which was used here as an endogenous control. For Mbnl1 quantification in mouse muscle tissues, we implemented the following modifications: each sample was loaded in quadruplicate on three different plates. One was used to detect Mbnl1 with a mouse MB1a(4A8) antibody (DSHB, Iowa City, IA) using a 1:200 dilution. A second plate was used to quantify tubulin (endogenous normalization control) with a mouse 12G10 antibody (DSHB) using a 1:1,000 dilution. A third plate was used to quantify IgG signal (negative control to subtract background) using an anti-mouse-IgG secondary antibody (Sigma-Aldrich) at 1:3,500 dilution. This subtraction was necessary due to an unspecific IgG signal could be observed in mouse samples (Figures S10A–S10D). All primary antibodies were detected using horseradish peroxidase-conjugated anti-mouse-IgG secondary antibody (1:5,000 for the anti-mouse plate, 1:2,000 for cell plates, and 1:3,500 for mouse plates [Sigma-Aldrich, MO]). Immunoreactive bands were detected using Pierce ECL Western reagent (Thermo Scientific), and luminescence levels were determined using an Infinite M200 PRO plate reader (Tecan). The validity of this correction for QDB quantification of mouse samples was confirmed by performing a series of experiments determining both the window of linearity of the assay (2–5 μg protein, Figures S10A–S10B) and the comparison with data obtained by WB in a subset of samples (Figures S10E–S10H), obtaining a correlation of 0.9927 for MBNL1 and 0.8678 for tubulin (in the case of quadriceps), and 0.9821 for MBNL1 and 0.9699 for tubulin (in gastrocnemius). For WB assay in quadriceps (Figure S10I), samples were loaded in pools of each treatment to have a representative WB of all the treatments tested. WB assay was performed as described previously.[20]

[1] = HSALR mice, 9.2 mg/kg (mean) i.v. x3, day 45, serum, mean ± sd, n = 5

Substance: 6aKC-23b (antisense GGUAAUCCCUGGCAAUGUGAU; all phosphorodiamidate morpholino (PMO), T or U not given here; Pip6aKC peptide conjugated)
- ALT (HSALR mice; mouse, in vivo, iv, 9.2 mg/kg): 57,8 ± 13,349 U/L
- AST (HSALR mice; mouse, in vivo, iv, 9.2 mg/kg): 143,60 ± 41,464 U/L
- Alkaline Phosphatase (HSALR mice; mouse, in vivo, iv, 9.2 mg/kg): 58,40 ± 6,693 U/L
- Amylase (HSALR mice; mouse, in vivo, iv, 9.2 mg/kg): 4232,6 ± 2590,822 U/L
- Bile Acids (HSALR mice; mouse, in vivo, iv, 9.2 mg/kg): 0,675 ± 0,754 µmol/L
- Bilirubin (HSALR mice; mouse, in vivo, iv, 9.2 mg/kg): 0,11 ± 0,083 mg/dL
- C.P.K. (HSALR mice; mouse, in vivo, iv, 9.2 mg/kg): 831,8 ± 357,821 U/L
- Creatinine (HSALR mice; mouse, in vivo, iv, 9.2 mg/kg): 0,20 ± 0 mg/dL
- Glucose (HSALR mice; mouse, in vivo, iv, 9.2 mg/kg): 121,2 ± 27,607 mg/dL
- L.D.H. (HSALR mice; mouse, in vivo, iv, 9.2 mg/kg): 2574 ± 453,119 U/L
- Total cholesterol (HSALR mice; mouse, in vivo, iv, 9.2 mg/kg): 227,40 ± 11,014 mg/dL
- Triglycerides (HSALR mice; mouse, in vivo, iv, 9.2 mg/kg): 235,4 ± 40,209 mg/dL
- TC50 (DM1 cells): 1711.00 nM
- Mbnl1 Quads, WB assay (Mbnl1 protein; western blot): 1.13

Substance: 6aKC-218 (antisense ACAUGGUUAGAUCAAGCACAA; all phosphorodiamidate morpholino (PMO), T or U not given here; Pip6aKC peptide conjugated)
- ALT (HSALR mice; mouse, in vivo, iv, 9.2 mg/kg): 60,20 ± 16,208 U/L
- AST (HSALR mice; mouse, in vivo, iv, 9.2 mg/kg): 138,4 ± 57,665 U/L
- Alkaline Phosphatase (HSALR mice; mouse, in vivo, iv, 9.2 mg/kg): 58 ± 4,123 U/L
- Amylase (HSALR mice; mouse, in vivo, iv, 9.2 mg/kg): 2999,4 ± 120,286 U/L
- Bile Acids (HSALR mice; mouse, in vivo, iv, 9.2 mg/kg): 2,38 ± 3,406 µmol/L
- Bilirubin (HSALR mice; mouse, in vivo, iv, 9.2 mg/kg): 0,096 ± 0,03 mg/dL
- C.P.K. (HSALR mice; mouse, in vivo, iv, 9.2 mg/kg): 818 ± 604,389 U/L
- Creatinine (HSALR mice; mouse, in vivo, iv, 9.2 mg/kg): 0,20 ± 0 mg/dL
- Glucose (HSALR mice; mouse, in vivo, iv, 9.2 mg/kg): 107,2 ± 31,292 mg/dL
- L.D.H. (HSALR mice; mouse, in vivo, iv, 9.2 mg/kg): 2137,60 ± 340,071 U/L
- Total cholesterol (HSALR mice; mouse, in vivo, iv, 9.2 mg/kg): 232 ± 12,124 mg/dL
- Triglycerides (HSALR mice; mouse, in vivo, iv, 9.2 mg/kg): 273,4 ± 51,335 mg/dL
- TC50 (DM1 cells): 1809.00 nM
- Mbnl1 Quads, WB assay (Mbnl1 protein; protein): 1.02

Substance: 9b2-23b (antisense GGUAAUCCCUGGCAAUGUGAU; all phosphorodiamidate morpholino (PMO), T or U not given here; Pip9b2 peptide conjugated)
- ALT (HSALR mice; mouse, in vivo, iv, 9.2 mg/kg): 47 ± 6,708 U/L
- Alkaline Phosphatase (HSALR mice; mouse, in vivo, iv, 9.2 mg/kg): 61 ± 4,301 U/L
- Amylase (HSALR mice; mouse, in vivo, iv, 9.2 mg/kg): 2754,4 ± 540,954 U/L
- Bile Acids (HSALR mice; mouse, in vivo, iv, 9.2 mg/kg): 9 ± 11,747 µmol/L
- Bilirubin (HSALR mice; mouse, in vivo, iv, 9.2 mg/kg): 0,102 ± 0,029 mg/dL
- Creatinine (HSALR mice; mouse, in vivo, iv, 9.2 mg/kg): 0,26 ± 0,054 mg/dL
- Lipase (HSALR mice; mouse, in vivo, iv, 9.2 mg/kg): 36,60 ± 8,264 U/L
- Urea (HSALR mice; mouse, in vivo, iv, 9.2 mg/kg): 53 ± 2,345 mg/dL
- urea values vs HSALR group treated with PBS (HSALR mice; mouse, in vivo, iv, 9.2 mg/kg): statistically significant increase in the urea values
- TC50 (DM1 cells): 88.00 nM
- Mbnl1 Quads, WB assay (Mbnl1 protein; protein): 1.46
- Mbnl1 Quads, WB assay (Mbnl1 protein; western blot): 1.46

Substance: 9b2-218 (antisense ACAUGGUUAGAUCAAGCACAA; all phosphorodiamidate morpholino (PMO), T or U not given here; Pip9b2 peptide conjugated)
- ALT (HSALR mice; mouse, in vivo, iv, 9.2 mg/kg): 49 ± 19,079 U/L
- Alkaline Phosphatase (HSALR mice; mouse, in vivo, iv, 9.2 mg/kg): 61,40 ± 6,730 U/L
- Amylase (HSALR mice; mouse, in vivo, iv, 9.2 mg/kg): 2773,2 ± 363,954 U/L
- Bile Acids (HSALR mice; mouse, in vivo, iv, 9.2 mg/kg): 74,80 ± 159,433 µmol/L
- Bilirubin (HSALR mice; mouse, in vivo, iv, 9.2 mg/kg): 0,108 ± 0,044 mg/dL
- Creatinine (HSALR mice; mouse, in vivo, iv, 9.2 mg/kg): 0,32 ± 0,192 mg/dL
- Lipase (HSALR mice; mouse, in vivo, iv, 9.2 mg/kg): 63,8 ± 75,793 U/L
- Urea (HSALR mice; mouse, in vivo, iv, 9.2 mg/kg): 44,40 ± 6,985 mg/dL
- TC50 (DM1 cells): 42.00 nM
- Mbnl1 Quads, WB assay (Mbnl1 protein; protein): 1.58

Substance: 9b2KC-23b (antisense GGUAAUCCCUGGCAAUGUGAU; all phosphorodiamidate morpholino (PMO), T or U not given here; Pip9b2KC peptide conjugated)
- ALT (HSALR mice; mouse, in vivo, iv, 9.2 mg/kg): 45,20 ± 1,303 U/L
- Alkaline Phosphatase (HSALR mice; mouse, in vivo, iv, 9.2 mg/kg): 58,8 ± 5,718 U/L
- Amylase (HSALR mice; mouse, in vivo, iv, 9.2 mg/kg): 2952,6 ± 123,373 U/L
- Bile Acids (HSALR mice; mouse, in vivo, iv, 9.2 mg/kg): 8,40 ± 8,264 µmol/L
- Bilirubin (HSALR mice; mouse, in vivo, iv, 9.2 mg/kg): 0,10 ± 0,045 mg/dL
- Creatinine (HSALR mice; mouse, in vivo, iv, 9.2 mg/kg): 0.20 ± 0,071 mg/dL
- Lipase (HSALR mice; mouse, in vivo, iv, 9.2 mg/kg): 30,6 ± 6,730 U/L
- Urea (HSALR mice; mouse, in vivo, iv, 9.2 mg/kg): 43,6 ± 6,580 mg/dL
- TC50 (DM1 cells): 256.00 nM
- Mbnl1 Quads, WB assay (Mbnl1 protein; western blot): 1.36

Substance: 9b2KC-218 (antisense ACAUGGUUAGAUCAAGCACAA; all phosphorodiamidate morpholino (PMO), T or U not given here; Pip9b2KC peptide conjugated)
- ALT (HSALR mice; mouse, in vivo, iv, 9.2 mg/kg): 47 ± 10 U/L
- Alkaline Phosphatase (HSALR mice; mouse, in vivo, iv, 9.2 mg/kg): 59,8 ± 6,300 U/L
- Amylase (HSALR mice; mouse, in vivo, iv, 9.2 mg/kg): 2593,4 ± 987,253 U/L
- Bile Acids (HSALR mice; mouse, in vivo, iv, 9.2 mg/kg): 55,20 ± 107,339 µmol/L
- Bilirubin (HSALR mice; mouse, in vivo, iv, 9.2 mg/kg): 0,112 ± 0,026 mg/dL
- Creatinine (HSALR mice; mouse, in vivo, iv, 9.2 mg/kg): 0,22 ± 0,084 mg/dL
- Lipase (HSALR mice; mouse, in vivo, iv, 9.2 mg/kg): 134,4 ± 227,401 U/L
- Urea (HSALR mice; mouse, in vivo, iv, 9.2 mg/kg): 41 ± 1,871 mg/dL
- TC50 (DM1 cells): 88.26 nM
- Mbnl1 Quads, WB assay (Mbnl1 protein; protein): 1.44

Substance: TCTTACCTCAGTTACAATTTA-Pip9b2 [Scramble, reference compound]
- ALT (HSALR mice; [1]): 47,6 ± 11,327 U/L
- AST (HSALR mice; [1]): 129,60 ± 33,687 U/L
- Alkaline Phosphatase (HSALR mice; [1]): 61 ± 6,557 U/L
- Amylase (HSALR mice; [1]): 3234,2 ± 476,489 U/L
- Bile Acids (HSALR mice; [1]): 3,38 ± 5,188 µmol/L
- Bilirubin (HSALR mice; [1]): 0,118 ± 0,026 mg/dL
- C.P.K. (HSALR mice; [1]): 763 ± 244,663 U/L
- Creatinine (HSALR mice; [1]): 0,20 ± 0 mg/dL
- Glucose (HSALR mice; [1]): 113,60 ± 35,352 mg/dL
- L.D.H. (HSALR mice; [1]): 2438,8 ± 183,91 U/L
- Total cholesterol (HSALR mice; [1]): 224,40 ± 11,216 mg/dL
- Triglycerides (HSALR mice; [1]): 259,8 ± 56,287 mg/dL
- TC50 (DM1 cells; toxic concentration 50, DM1 cells transfected 24 h after seeding, read after 96 h, absorbance, non-linear least-squares regression): 217.00 nM
- Mbnl1 Quads, WB assay (Mbnl1 protein; protein): 1.00
